Assay [1] addresses native rat TrkA on PC12 cells (rat, UniProt P35739 33-799). Put plainly: cell-based or functional assay.
In assay [2] the target is T1, hTrkB-Extracellular Domain-poly C-terminal Histidine tagged (human, UniProt Q16620 32-430).
T1 construct: extracellular domain; Immobilised on a CM5 chip by amine coupling; also called hTrkB-ECD-His; human TrkB
Put plainly: SPR, target amine-coupled on CM5 chip, 25 C, pH 7.4. Background: SPR reads the build-up and loss of mass on a sensor chip optically.

The target in assay [3] is T2, hTrkC-ECD-His (human, UniProt Q16288 32-429).
T2 construct: extracellular domain; Immobilised on a CM5 chip by amine coupling; also called human TrkC
The description is as above.

For assay [4], the target named is T3, hp75NTR-His (human, UniProt P08138 29-250).
T3 construct: extracellular domain; Immobilised on a CM5 chip by amine coupling; also called human p75NTR
T3 sequence (looked up): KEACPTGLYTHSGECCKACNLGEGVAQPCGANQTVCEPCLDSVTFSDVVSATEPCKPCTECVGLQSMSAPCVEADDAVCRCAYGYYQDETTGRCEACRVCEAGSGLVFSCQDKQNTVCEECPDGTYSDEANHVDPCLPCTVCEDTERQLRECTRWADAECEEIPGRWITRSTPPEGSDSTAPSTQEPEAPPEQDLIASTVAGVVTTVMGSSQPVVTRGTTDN
Described as above.

Assay [5] addresses T4, native human TrkA expressed endogenously on SH-SY5Y cells (human, UniProt P04629 33-796).
T4 construct: whole, on cells
Put plainly: flow cytometry on SH-SY5Y cells, anti-human IgG Fc secondary, MFI, average of three experiments.

Chain of native rat TrkA on PC12 cells (P35739 33-799): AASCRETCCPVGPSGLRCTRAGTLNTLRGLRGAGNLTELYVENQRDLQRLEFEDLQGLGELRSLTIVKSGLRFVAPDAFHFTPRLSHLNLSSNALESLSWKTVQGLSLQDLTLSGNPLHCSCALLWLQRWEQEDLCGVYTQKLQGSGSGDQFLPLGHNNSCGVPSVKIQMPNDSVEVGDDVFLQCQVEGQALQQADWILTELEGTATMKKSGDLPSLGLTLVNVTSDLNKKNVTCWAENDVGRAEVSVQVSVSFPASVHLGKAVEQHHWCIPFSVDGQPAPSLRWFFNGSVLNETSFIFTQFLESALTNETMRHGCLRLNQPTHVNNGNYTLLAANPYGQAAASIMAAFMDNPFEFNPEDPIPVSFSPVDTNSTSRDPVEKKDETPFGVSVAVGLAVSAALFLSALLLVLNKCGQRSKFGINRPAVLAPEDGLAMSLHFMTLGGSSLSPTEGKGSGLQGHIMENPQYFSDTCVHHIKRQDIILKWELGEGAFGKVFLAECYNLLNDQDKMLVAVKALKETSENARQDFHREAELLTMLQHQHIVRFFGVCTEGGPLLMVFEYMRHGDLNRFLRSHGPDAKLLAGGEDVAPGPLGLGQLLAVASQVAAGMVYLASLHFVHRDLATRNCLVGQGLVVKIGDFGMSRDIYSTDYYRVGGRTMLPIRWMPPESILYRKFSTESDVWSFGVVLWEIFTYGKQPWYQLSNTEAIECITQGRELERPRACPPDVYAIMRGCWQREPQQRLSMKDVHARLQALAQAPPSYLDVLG
T1 sequence (Q16620 32-430): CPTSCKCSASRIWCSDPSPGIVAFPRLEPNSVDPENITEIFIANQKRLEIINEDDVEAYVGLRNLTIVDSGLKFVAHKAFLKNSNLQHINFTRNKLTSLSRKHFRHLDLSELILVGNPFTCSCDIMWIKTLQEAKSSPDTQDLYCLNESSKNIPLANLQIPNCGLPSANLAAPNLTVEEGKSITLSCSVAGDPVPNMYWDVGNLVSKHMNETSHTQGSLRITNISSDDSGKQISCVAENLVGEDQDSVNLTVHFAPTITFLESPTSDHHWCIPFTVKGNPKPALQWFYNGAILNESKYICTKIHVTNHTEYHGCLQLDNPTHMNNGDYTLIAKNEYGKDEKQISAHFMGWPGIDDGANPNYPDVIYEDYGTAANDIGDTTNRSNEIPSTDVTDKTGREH
T4 sequence (P04629 33-796): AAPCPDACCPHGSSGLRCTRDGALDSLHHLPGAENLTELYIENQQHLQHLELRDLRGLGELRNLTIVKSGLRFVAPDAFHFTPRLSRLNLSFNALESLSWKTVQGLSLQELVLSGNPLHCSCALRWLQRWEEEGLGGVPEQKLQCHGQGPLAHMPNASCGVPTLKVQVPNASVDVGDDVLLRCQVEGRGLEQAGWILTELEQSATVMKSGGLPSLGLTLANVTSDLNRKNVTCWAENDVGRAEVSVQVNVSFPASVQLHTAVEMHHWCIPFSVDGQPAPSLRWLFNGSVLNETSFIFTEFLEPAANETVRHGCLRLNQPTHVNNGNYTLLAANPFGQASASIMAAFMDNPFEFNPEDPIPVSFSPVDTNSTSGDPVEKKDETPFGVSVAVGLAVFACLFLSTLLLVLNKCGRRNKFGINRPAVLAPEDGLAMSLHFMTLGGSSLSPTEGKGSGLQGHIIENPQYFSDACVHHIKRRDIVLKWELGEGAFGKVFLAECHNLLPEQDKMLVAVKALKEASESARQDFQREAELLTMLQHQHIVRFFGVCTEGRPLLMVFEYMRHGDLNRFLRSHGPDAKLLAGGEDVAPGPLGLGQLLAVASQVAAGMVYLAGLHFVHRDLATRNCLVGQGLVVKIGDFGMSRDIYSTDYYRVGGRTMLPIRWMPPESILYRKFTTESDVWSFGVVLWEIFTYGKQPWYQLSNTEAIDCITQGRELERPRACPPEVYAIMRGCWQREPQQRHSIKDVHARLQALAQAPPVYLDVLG

B1: anti-TrkA antibody Ab82, full length (antibody, V domains shown)
VH: QVQLQESGPGLVKPSGTLSLTCAVSGGSISSSNWWTWVRQPPGKGLEWIGEIYHRGNRNYNPSLKSRVTISVDKSKNQFSLKLSSVTAADTAVYYCARAPWFDYWGQGTLVTVSS
VL: SSELTQDPAVSVALGQTVRITCQGDALRSYYASWYQQKPGQAPVLVIYGKGNRPSGIPDRFSGSSSGNTASLTITGAQAEDEADYYCASQASSGNHLIFGGGTKLTVLG
notes: also called full length Ab82; full-length antibody
In the case of B1, in assay [1], the Akt phosphorylation in PC12 cells, EC50 was 501 pM; the Erk phosphorylation in PC12 cells, EC50 was 540 pM; the TrkA receptor phosphorylation in PC12 cells (AlphaLISA p-TrkA Tyr674/675), EC50 amounted to 341 pM; the neurite outgrowth in PC12 cells at 138 hours, EC50 is 85.8 pM. In assay [2], the binding result was “no binding (tested: 1 nM)”. Further, the binding result in assay [3] was “no binding (tested: 1 nM)”. The binding result in assay [4] is “no binding (tested: 1 nM)”. The same molecule displayed an EC50 in assay [5] of 275000 pM.

Broadly, the EC50 is the midpoint of the concentration-response curve. Read a high EC50 as lower potency in that assay.
